From publication PMC10279719
Non-standard residues stand in square brackets, D forms with d. pT = C[C@@H](OP(=O)(O)O)[C@H](N)C(=O)O

B1: full length CrkII, dimer (CrkII^FL dimer), P46108-1 1-304 (natural protein)
chain: MAGNFDSEERSSWYWGRLSRQEAVALLQGQRHGVFLVRDSSTSPGDYVLSVSENSRVSHYIINSSGPRPPVPPSPAQPPPGVSPSRLRIGDQEFDSLPALLEFYKIHYLDTTTLIEPVSRSRQGSGVILRQEEAEYVRALFDFNGNDEEDLPFKKGDILRIRDKPEEQWWNAEDSEGKRGMIPVPYVEKYRPASASVSALIGGNQEGSHPQPLGGPEPGPYAQPSVNTPLPNLQNGPIYARVIQKRVPNAYDKTALALEVGELVKVTKINVSGQWEGECNGKRGHFPFTHVRLLDQQNPDEDFS
modifications: here or on the partner: biotin (EZ-Link NHS-PEG4-Biotin, 1:1 molar ratio) where it was immobilised (a1); biotin (EZ-Link NHS-PEG4-Biotin, 1:1 molar ratio)
B2: full length CrkII, monomer (CrkII^FL monomer), P46108-1 1-304 (natural protein)
chain: B1 chain
modifications: here or on the partner: biotin (EZ-Link NHS-PEG4-Biotin, 1:1 molar ratio) where it was immobilised (a1); biotin (EZ-Link NHS-PEG4-Biotin, 1:1 molar ratio)
B3: full length CrkII, dimer (CrkIIFL dimer), P46108-1 1-304 (natural protein)
chain: B1 chain
modifications: here or on the partner: biotin (EZ-Link NHS-PEG4-Biotin) in the SPR experiment only; biotin (EZ-Link NHS-PEG4-Biotin) in the SPR experiment only

What was measured:
14-3-3σ (sigma) (human) = experiment: SPR; 14-3-3 isoforms amine coupled to a CM5 chip, tandem peptides as analytes (10 µM-10 nM for PEAK3 tandem-pS69, 20 µM-20 nM for all others); Biacore S200, 20 °C, HBS-TP; steady state, 1:1 model
[1] = biological target: 14-3-3η (residues 1-246) (human); experiment: as above
[2] = biological target: 14-3-3γ (residues 1-247) (human); experiment: as above
[3] = biological target: T1, full length PEAK3 (PEAK3^FL, residues 1-473), from E. coli (human), Q6ZS72; experiment: SPR; biotinylated PEAK proteins (with or without Src phosphorylation) captured with a biotin CAPture kit; Grb2 FL, Grb2 SH2, CrkII SH2, CrkII FL monomer or dimer as analytes; Biacore 8K+, 20 °C, HBS-TP with NaCl raised to 500 mM; 1 M NaCl regeneration; steady state; details: remark: other sources report otherwise
T1 chain: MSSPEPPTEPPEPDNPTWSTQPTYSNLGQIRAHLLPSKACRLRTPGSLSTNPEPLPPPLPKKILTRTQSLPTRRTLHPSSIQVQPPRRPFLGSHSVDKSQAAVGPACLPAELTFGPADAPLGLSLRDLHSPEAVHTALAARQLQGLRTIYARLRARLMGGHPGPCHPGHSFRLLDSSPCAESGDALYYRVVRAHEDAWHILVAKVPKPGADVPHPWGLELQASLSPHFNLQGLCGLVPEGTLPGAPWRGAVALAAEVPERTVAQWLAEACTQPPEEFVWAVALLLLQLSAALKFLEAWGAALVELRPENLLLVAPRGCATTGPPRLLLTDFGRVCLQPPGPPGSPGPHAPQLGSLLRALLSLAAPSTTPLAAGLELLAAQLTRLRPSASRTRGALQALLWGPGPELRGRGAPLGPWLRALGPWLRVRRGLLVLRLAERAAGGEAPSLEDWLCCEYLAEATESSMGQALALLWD

[4] = biological target: T2, full length PEAK3 (PEAK3^FL, residues 1-473), from E. coli, phosphorylated by Src (human), Q6ZS72; experiment: as above; details: remark: other sources report otherwise
T2 chain: T1 chain

[5] = biological target: T3, full length PEAK3 (PEAK3^FL, residues 1-473), from insect cells, phosphorylated by Src (human), Q6ZS72; experiment: as above; details: remark: other sources report otherwise
T3 chain: T1 chain

[6] = biological target: T4, PEAK3^FL from insect cells, phosphorylated by Src (human), Q6ZS72; experiment: SPR; details: natural protein, biotin (EZ-Link NHS-PEG4-Biotin) where immobilised for SPR, phosphotyrosine at 24 (by Src in vitro, MS/MS), phosphoserine at 69, remark: other sources report otherwise
T4 chain: T1 chain

[7] = biological target: T5, full length PEAK3 from insect cells (PEAK3^FL, S69 phosphorylated) (human), Q6ZS72; experiment: SPR; details: natural protein, biotin (EZ-Link NHS-PEG4-Biotin) where immobilised for SPR, phosphoserine at 69, remark: other sources report otherwise
T5 chain: T1 chain

[8] = biological target: T6, PEAK3^FL from E. coli, phosphorylated by Src (human), Q6ZS72; experiment: SPR; details: natural protein, biotin (EZ-Link NHS-PEG4-Biotin) where immobilised for SPR, phosphotyrosine at 24 (by Src in vitro; the MS/MS was told for PEAK3^FL in general), remark: other sources report otherwise
T6 chain: T1 chain

[9] = biological target: full length CrkII, dimer (CrkIIFL dimer) (human), P46108; experiment: SEC-MALS; Superdex 200 Increase 10/300 GL, 20 mM HEPES pH 7.5, 150 mM NaCl, 1 mM TCEP, 0.5 ml/min; details: remark: other sources report otherwise

14-3-3σ (sigma) (human), sequence (A8K1N0 whole entry, the tested form may be a part, canonical isoform): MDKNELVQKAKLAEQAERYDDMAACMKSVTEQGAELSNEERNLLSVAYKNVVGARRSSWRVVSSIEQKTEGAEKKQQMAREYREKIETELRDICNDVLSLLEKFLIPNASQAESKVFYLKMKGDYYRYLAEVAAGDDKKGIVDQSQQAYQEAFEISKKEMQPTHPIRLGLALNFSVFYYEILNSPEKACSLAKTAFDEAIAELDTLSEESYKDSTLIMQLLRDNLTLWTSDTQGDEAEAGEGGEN

| Binder | Kd (14-3-3σ (sigma) (human)) [nM] | Kd [1] [nM] | Kd [2] [nM] | Kd [3] [nM] | Kd [5] [nM] | Kd [7] [nM] | Kd [8] [nM] | other results |
| --- | --- | --- | --- | --- | --- | --- | --- | --- |
| Ac-PPPLPKKMIIRAN[pT]EPISKD-NH2 [PEAK1 tandem-pT1165 peptide (residues 1152-1171)] | 9700 | 2560 | 1770 |  |  |  |  |  |
| B1 |  |  |  | 7600 | 2180 | 2400 | 2100 | Kd [4]: 2110 nM; Kd [6]: 2200 nM |
| B2 |  |  |  | 14100 | 2700 | 12800 | 2600 |  |
| B3 |  |  |  |  |  |  |  | stoichiometry N [9]: 2 |
| Ac-PPPLPQKKIVSRAASSPDGF-NH2 [PEAK2 tandem peptide, non-phosphorylated (residues 812-831)] | > 100000 |  |  |  |  |  |  |  |
| Ac-PPPLPKKMIIRANTEPISKD-NH2 [PEAK1 tandem peptide, non-phosphorylated (residues 1152-1171)] | > 100000 | > 100000 | > 100000 |  |  |  |  |  |
